Each block holds one binder with its values, some of them ahead of it.
Assays:
[1] = molecular target: T1, GH1 β-glucosidase from Spodoptera frugiperda (Sfβgly), wild-type (Spodoptera frugiperda); test: SEC-MALS; 90 μM Sfβgly in 100 mM sodium phosphate buffer pH 6 (P100) at 5 °C; two Superdex 200 columns in tandem; conditions: both partners purified
[2] = molecular target: T1, GH1 β-glucosidase from Spodoptera …; test: SEC; dimer to monomers; 5 mM phosphate buffer pH 6 (P5), 5 °C; KD is the slope of [M]^2 versus [D] from peak areas; conditions: both partners purified
[3] = molecular target: T1, GH1 β-glucosidase from Spodoptera …; test: SEC; dimer to monomers; 25 mM phosphate buffer pH 6 (P25), 5 °C; KD is the slope of [M]^2 versus [D] from peak areas; conditions: both partners purified
[4] = molecular target: T1, GH1 β-glucosidase from Spodoptera …; test: SEC; dimer to monomers; 50 mM phosphate buffer pH 6 (P50), 5 °C; KD is the slope of [M]^2 versus [D] from peak areas; conditions: both partners purified
[5] = molecular target: T1, GH1 β-glucosidase from Spodoptera …; test: SEC; dimer to monomers; 75 mM phosphate buffer pH 6 (P75), 5 °C; KD is the slope of [M]^2 versus [D] from peak areas; conditions: both partners purified
[6] = molecular target: T1, GH1 β-glucosidase from Spodoptera …; test: SEC; dimer to monomers; 100 mM phosphate buffer pH 6 (P100), 5 °C; two Superdex 200 HR10/300 GL columns in tandem; KD is the slope of [M]^2 versus [D] from peak areas at several protein concentrations; conditions: both partners purified
[7] = molecular target: T1, GH1 β-glucosidase from Spodoptera …; test: as above; conditions: both partners purified; remark: listed apart in the source
[8] = molecular target: the molecule itself; test: as above

stoichiometry N [1]: 2
Kd [2]: 135 µM
Kd [3]: 78 µM
Kd [4]: 9.5 µM
Kd [5]: 9.9 µM
Kd [6]: 7 µM
Kd [7]: 8 µM
B1: GH1 β-glucosidase from Spodoptera frugiperda (Sfβgly), wild-type (enzyme)
chain: QQRRFPDDFLFGTATASYQIEGAWDEDGKGENIWDYMVHNTPEVIRDLSNGDIAADSYHNYKRDVEMMRELGLDAYRFSLSWARILPTGMANEVNPAGIAFYNNYIDEMLKYNITPLITLYHWDLPQKLQELGGFANPLISDWFEDYARVVFENFGDRVKMFITFNEPREICFEGYGSATKAPILNATAMGAYLCAKNLVTAHAKAYYLYDREFRPVQGGQCGITISVNWFGPATPTPEDEMAAELRRQGEWGIYAHPIFSAEGGFPKELSDKIAEKSAQQGYPWSRLPEFTEEEKAFVRGTSDFFGVNHYTAFLVSATERKGPYPVPSLLDDVDTGSWADDSWLKSASAWLTLAPNSIHTALTHLNNLYNKPVFYITENGWSTDESRENSLIDDDRIQYYRASMESLLNCLDDGINLKGYMAWSLMDNFEWMEGYIERFGLYEVDFSDPARTRTPRKAAFVYKHIIKHRVVDYEYEPETMVMTIDEGH
modifications: Monomer given, self-associates to a C2 homodimer. Limits by convention from the 5CG0 entity; paper numbering = entity + 20 (precursor numbering) / Monomer given, self-associates to a C2 homodimer. …

B2: Sfβgly mutant M210A (enzyme)
chain: QQRRFPDDFLFGTATASYQIEGAWDEDGKGENIWDYMVHNTPEVIRDLSNGDIAADSYHNYKRDVEMMRELGLDAYRFSLSWARILPTGMANEVNPAGIAFYNNYIDEMLKYNITPLITLYHWDLPQKLQELGGFANPLISDWFEDYARVVFENFGDRVKMFITFNEPREICFEGYGSATKAPILNATAAGAYLCAKNLVTAHAKAYYLYDREFRPVQGGQCGITISVNWFGPATPTPEDEMAAELRRQGEWGIYAHPIFSAEGGFPKELSDKIAEKSAQQGYPWSRLPEFTEEEKAFVRGTSDFFGVNHYTAFLVSATERKGPYPVPSLLDDVDTGSWADDSWLKSASAWLTLAPNSIHTALTHLNNLYNKPVFYITENGWSTDESRENSLIDDDRIQYYRASMESLLNCLDDGINLKGYMAWSLMDNFEWMEGYIERFGLYEVDFSDPARTRTPRKAAFVYKHIIKHRVVDYEYEPETMVMTIDEGH
Kd [8]: 3600 µM

B3: Sfβgly mutant D166S (enzyme)
chain: QQRRFPDDFLFGTATASYQIEGAWDEDGKGENIWDYMVHNTPEVIRDLSNGDIAADSYHNYKRDVEMMRELGLDAYRFSLSWARILPTGMANEVNPAGIAFYNNYIDEMLKYNITPLITLYHWDLPQKLQELGGFANPLISDWFESYARVVFENFGDRVKMFITFNEPREICFEGYGSATKAPILNATAMGAYLCAKNLVTAHAKAYYLYDREFRPVQGGQCGITISVNWFGPATPTPEDEMAAELRRQGEWGIYAHPIFSAEGGFPKELSDKIAEKSAQQGYPWSRLPEFTEEEKAFVRGTSDFFGVNHYTAFLVSATERKGPYPVPSLLDDVDTGSWADDSWLKSASAWLTLAPNSIHTALTHLNNLYNKPVFYITENGWSTDESRENSLIDDDRIQYYRASMESLLNCLDDGINLKGYMAWSLMDNFEWMEGYIERFGLYEVDFSDPARTRTPRKAAFVYKHIIKHRVVDYEYEPETMVMTIDEGH
Kd [8]: 100 µM

B4: Sfβgly mutant N157S (enzyme)
chain: QQRRFPDDFLFGTATASYQIEGAWDEDGKGENIWDYMVHNTPEVIRDLSNGDIAADSYHNYKRDVEMMRELGLDAYRFSLSWARILPTGMANEVNPAGIAFYNNYIDEMLKYNITPLITLYHWDLPQKLQELGGFASPLISDWFEDYARVVFENFGDRVKMFITFNEPREICFEGYGSATKAPILNATAMGAYLCAKNLVTAHAKAYYLYDREFRPVQGGQCGITISVNWFGPATPTPEDEMAAELRRQGEWGIYAHPIFSAEGGFPKELSDKIAEKSAQQGYPWSRLPEFTEEEKAFVRGTSDFFGVNHYTAFLVSATERKGPYPVPSLLDDVDTGSWADDSWLKSASAWLTLAPNSIHTALTHLNNLYNKPVFYITENGWSTDESRENSLIDDDRIQYYRASMESLLNCLDDGINLKGYMAWSLMDNFEWMEGYIERFGLYEVDFSDPARTRTPRKAAFVYKHIIKHRVVDYEYEPETMVMTIDEGH
Kd [8]: 28 µM

B5: Sfβgly mutant N112S (enzyme)
chain: QQRRFPDDFLFGTATASYQIEGAWDEDGKGENIWDYMVHNTPEVIRDLSNGDIAADSYHNYKRDVEMMRELGLDAYRFSLSWARILPTGMASEVNPAGIAFYNNYIDEMLKYNITPLITLYHWDLPQKLQELGGFANPLISDWFEDYARVVFENFGDRVKMFITFNEPREICFEGYGSATKAPILNATAMGAYLCAKNLVTAHAKAYYLYDREFRPVQGGQCGITISVNWFGPATPTPEDEMAAELRRQGEWGIYAHPIFSAEGGFPKELSDKIAEKSAQQGYPWSRLPEFTEEEKAFVRGTSDFFGVNHYTAFLVSATERKGPYPVPSLLDDVDTGSWADDSWLKSASAWLTLAPNSIHTALTHLNNLYNKPVFYITENGWSTDESRENSLIDDDRIQYYRASMESLLNCLDDGINLKGYMAWSLMDNFEWMEGYIERFGLYEVDFSDPARTRTPRKAAFVYKHIIKHRVVDYEYEPETMVMTIDEGH
Kd [8]: 1200 µM

B6: Sfβgly mutant L214A (enzyme)
chain: QQRRFPDDFLFGTATASYQIEGAWDEDGKGENIWDYMVHNTPEVIRDLSNGDIAADSYHNYKRDVEMMRELGLDAYRFSLSWARILPTGMANEVNPAGIAFYNNYIDEMLKYNITPLITLYHWDLPQKLQELGGFANPLISDWFEDYARVVFENFGDRVKMFITFNEPREICFEGYGSATKAPILNATAMGAYACAKNLVTAHAKAYYLYDREFRPVQGGQCGITISVNWFGPATPTPEDEMAAELRRQGEWGIYAHPIFSAEGGFPKELSDKIAEKSAQQGYPWSRLPEFTEEEKAFVRGTSDFFGVNHYTAFLVSATERKGPYPVPSLLDDVDTGSWADDSWLKSASAWLTLAPNSIHTALTHLNNLYNKPVFYITENGWSTDESRENSLIDDDRIQYYRASMESLLNCLDDGINLKGYMAWSLMDNFEWMEGYIERFGLYEVDFSDPARTRTPRKAAFVYKHIIKHRVVDYEYEPETMVMTIDEGH
Kd [8]: 5400 µM
